# According to patent publication US20170313754A1 (PROTAGONIST THERAPEUTICS, published 2017):
# Numbered stars: 1 amine (or outer) side, 2 acyl side, 3 side chain; on linkers, the order of the positions; unused ones are H or OH. Bridge positions count the residues as written; N and C are the ends. Square brackets hold non-standard residues; d marks the D form. Ends that are not written are not given here. * marks the point of attachment. Ida = iminodiacetic acid, O=C(CN(CC(=O)[*:3])[*:1])[*:2]; Dip = N[C@H](C(=O)O)C(c1ccccc1)c1ccccc1; β3hF = N[C@H](CC(=O)O)Cc1ccccc1; pGlu = O=C1CC[C@@H](C(=O)O)N1; β3hP = O=C(O)C[C@@H]1CCCN1; Isovaleryl = CC(C)CC(=O)*
# T1: human ferroportin (SLC40A1) fused in frame with GFP, stably expressed in HEK293 cells (human, UniProt Q9NP59 1-571)
# T1 sequence (looked up): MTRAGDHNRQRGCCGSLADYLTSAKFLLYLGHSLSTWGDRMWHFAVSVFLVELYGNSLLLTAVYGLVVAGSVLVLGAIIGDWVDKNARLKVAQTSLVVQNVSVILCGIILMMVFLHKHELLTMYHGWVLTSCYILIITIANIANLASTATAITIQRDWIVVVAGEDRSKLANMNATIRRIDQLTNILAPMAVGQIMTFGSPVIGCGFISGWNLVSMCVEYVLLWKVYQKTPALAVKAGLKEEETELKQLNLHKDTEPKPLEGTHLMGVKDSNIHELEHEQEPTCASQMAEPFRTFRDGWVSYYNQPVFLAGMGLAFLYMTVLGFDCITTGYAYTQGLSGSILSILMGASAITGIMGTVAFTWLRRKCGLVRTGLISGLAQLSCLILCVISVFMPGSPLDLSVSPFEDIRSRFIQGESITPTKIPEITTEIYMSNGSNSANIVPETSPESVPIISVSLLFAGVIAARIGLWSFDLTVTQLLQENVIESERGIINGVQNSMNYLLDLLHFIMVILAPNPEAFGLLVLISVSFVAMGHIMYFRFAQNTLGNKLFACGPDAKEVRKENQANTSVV
# Target: T1, human ferroportin (SLC40A1) fused in …
# Assay: cell-based or functional assay
Binder,"Potency: percent at the stated concentration, ferroportin-GFP internalization/degradation","Potency EC50 (nM), ferroportin-GFP internalization/degradation"
H-DTHFPCIVF-NH2 [Hy-DTHFPCIVF-NH2],75 % at 1 µM,
H-DTHFPCILK-NH2 [Hy-DTHFPCILK-NH2],55 % at 1 µM,
H-DTHFPCIEF-NH2 [Hy-DTHFPCIEF-NH2],,> 1000 nM
H-DTHFPCILF-NH2 [Hy-DTHFPCILF-NH2],89 % at 1 µM,
H-DTHFPCIF-NH2 [Hy-DTHFPCIF-NH2],52 % at 1 µM,
H-DTHFPCIIFAA-NH2 [Hy-DTHFPCIIFAA-NH2],59 % at 1 uM,
"H-DTHFPCRIF-NH2 [Hy-DTHFPCRIF-NH2, listing 1 of 2 here]",,> 1000 nM
H-DTHFPCIIK-NH2 [Hy-DTHFPCIIK-NH2],55 % at 1 µM,
H-DTHFPCFIF-NH2 [Hy-DTHFPCFIF-NH2],,1190 nM
H-ATHFPCIIF-NH2 [Hy-ATHFPCIIF-NH2],,> 1000 nM
H-DTHFPCIKFF-NH2 [Hy-DTHFPCIKFF-NH2],64 % at 1 µM,
H-DTHFPCIIFAC-NH2 (disulfide 6-11 (inferred)) [Hy-DTHFPCIIFAC-NH2],,> 1000 nM
H-DTHFPCIIR-NH2 [Hy-DTHFPCIIR-NH2],62 % at 1 µM,
H-DTHFPCLIF-NH2 [Hy-DTHFPCLIF-NH2],,> 10000 nM
H-DTHFPIICI-NH2 [Hy-DTHFPIICI-NH2],,> 10000 nM
H-DTHFPCIEK-NH2 [Hy-DTHFPCIEK-NH2],0 % at 1 µM,

Binder,"Potency: percent at the stated concentration, ferroportin-GFP internalization/degradation","Potency EC50 (nM), ferroportin-GFP internalization/degradation"
H-DTHFPCLF-NH2 [Hy-DTHFPCLF-NH2],39 % at 1 uM,
H-DTHFPCRIFGPRSRGWVCK-NH2 (disulfide 6-18 (inferred)) [Hy-DTHFPCRIFGPRSRGWVCK-NH2],,> 1000 nM
H-DTHFPCAIF-NH2 [Hy-DTHFPCAIF-NH2],,> 1000 nM
H-DTHFPCIFGPRSKGWVC-NH2 (disulfide 6-17 (inferred)) [Hy-DTHFPCIFGPRSKGWVC-NH2],,> 1000 nM
H-DTHCPIAIF-NH2 [Hy-DTHCPIAIF-NH2],,> 10000 nM
H-ADHFPCIIF-NH2 [Hy-ADHFPCIIF-NH2],,> 1000 nM
H-DTHFPCVIF-NH2 [Hy-DTHFPCVIF-NH2],81 % at 10 uM,
H-DPHFPCIIF-NH2 [Hy-DPHFPCIIF-NH2],64 % at 10 uM,
H-DTHFPCQIF-NH2 [Hy-DTHFPCQIF-NH2],,> 1000 nM
H-DTHFPCKIF-NH2 [Hy-DTHFPCKIF-NH2],9 % at 10 uM,
H-DTHFPCIIFKC-NH2 (disulfide 6-11 (inferred)) [Hy-DTHFPCIIFKC-NH2],,6400 nM
"H-DTHFPCRIF-NH2 [Hy-DTHFPCRIF-NH2, listing 2 of 2 here]",31 % at 10 uM,
H-DTHFPIAICI-NH2 [Hy-DTHFPIAICI-NH2],,> 10000 nM
H-DTHFPCRF-NH2 [Hy-DTHFPCRF-NH2],31 % at 10 uM,
H-DTHFPCEIF-NH2 [Hy-DTHFPCEIF-NH2],,> 1000 nM

# Other lines, results leading:
"Potency: percent at the stated concentration, ferroportin-GFP internalization/degradation","Potency EC50 (nM), ferroportin-GFP internalization/degradation",Binder
,163 nM,Isovaleryl-DTHFPCKIFGPRSKGWECK-NH2 (disulfide 6-18 (inferred)) [Isovaleric acid-DTHFPCKIFGPRSKGWECK-NH2]
45 % at 10 uM,,H-DTHKPCIIF-NH2 [Hy-DTHKPCIIF-NH2]
64 % at 1 µM,,H-LTHFPCIIF-NH2 [Hy-LTHFPCIIF-NH2]
,> 1000 nM,[Ida]THF[β3hP]CRR[β3hF]GPRSKGWVC-NH2 (disulfide 6-18 (inferred)) [[IDA]-THF-[bhPro]-CRR-[bhPhe]GPRSKGWVC-NH2]
,6 nM,DTHFPCIKFKPHSKECK (N-terminal isovaleric acid; K(isoglu-Palm) at Lys 10; C-terminal amide) [Isovaleric acid-DTHFPCIKF-K(isoglu-Palm)-PHSKECK-NH2]
,> 1000 nM,H-DTHFPRRFGPRSKGWVC-NH2 [Hy-DTHFPRRFGPRSKGWVC-NH2]
,> 1000 nM,[pGlu]THFPCRKF-NH2 (SMILES C[C@@H](O)[C@H](NC(=O)[C@@H]1CCC(=O)N1)C(=O)N[C@@H](Cc1c[nH]cn1)C(=O)N[C@@H](Cc1ccccc1)C(=O)N1CCC[C@H]1C(=O)N[C@@H](CS)C(=O)N[C@@H](CCCNC(=N)N)C(=O)N[C@@H](CCCCN)C(=O)N[C@@H](Cc1ccccc1)C(N)=O) [Hy-[pGlu]-THFPCRKF-NH2]
,> 1000 nM,Isovaleryl-DTHFPCRRFGPRSKGWVCK-NH2 (disulfide 6-18 (inferred)) [Isovaleric acid-DTHFPCRRFGPRSKGWVCK-NH2]
77 % at 1 µM,,H-ETHFPCIIF-NH2 [Hy-ETHFPCIIF-NH2]
,16 nM,Isovaleryl-DTHFPCIIF-NH2 (SMILES CC[C@H](C)[C@H](NC(=O)[C@H](CS)NC(=O)[C@@H]1CCCN1C(=O)[C@H](Cc1ccccc1)NC(=O)[C@H](Cc1c[nH]cn1)NC(=O)[C@@H](NC(=O)[C@H](CC(=O)O)NC(=O)CC(C)C)[C@@H](C)O)C(=O)N[C@H](C(=O)N[C@@H](Cc1ccccc1)C(N)=O)[C@@H](C)CC) [Isovaleric acid-DTHFPCIIF-NH2]
,> 10000 nM,H-DTHICIAIF-NH2 [Hy-DTHICIAIF-NH2]
,206 nM,[Ida]TH[Dip][β3hP]CRR[β3hF]-NH2 [[IDA]-TH-[Dpa]-[bhPro]CRR-[bhPhe]-NH2]
,7 nM,Isovaleryl-DTHFPCIKF-NH2 (SMILES CC[C@H](C)[C@H](NC(=O)[C@H](CS)NC(=O)[C@@H]1CCCN1C(=O)[C@H](Cc1ccccc1)NC(=O)[C@H](Cc1c[nH]cn1)NC(=O)[C@@H](NC(=O)[C@H](CC(=O)O)NC(=O)CC(C)C)[C@@H](C)O)C(=O)N[C@@H](CCCCN)C(=O)N[C@@H](Cc1ccccc1)C(N)=O) [Isovaleric acid-DTHFPCIKF-NH2]
60 % at 1 µM,,H-DTKFPCIIF-NH2 [Hy-DTKFPCIIF-NH2]
,> 1000 nM,Isovaleryl-DTHFPCIKKEPHSKECK-NH2 (disulfide 6-16 (inferred)) [Isovaleric acid-DTHFPCIKKEPHSKECK-NH2]
,86 nM,Isovaleryl-DTHFPCKIFGPRSKGWVCK-NH2 (disulfide 6-18 (inferred)) [Isovaleric acid-DTHFPCKIFGPRSKGWVCK-NH2]
